Substitutions are numbered along the chain they refer to.
B1: Sso7d construct 4.1A03 (EGFR, Purif. No. 2) (designed binder)
chain: ATVKFTYQGEEKQVDISKIKIVDRYGQYIHFRYDEGGGANGWGWVSEKDAPKELLQMLEKQ
notes: Purified from E. coli on anti-APP columns; It is NGS hit no; 3, at 2.18%; also called Hit NO; not shown: APP tag of the vector
B2: Sso7d construct 4.1H02 (EGFR, Purif. No. 4) (designed binder)
chain: B1 chain with Y28W, N40D
notes: Purified from E. coli on anti-APP columns; not shown: APP tag of the vector
B3: Sso7d construct 4.2B11 (EGFR, Purif. No. 6) (designed binder)
chain: B1 chain with Y28N, R32N, N40W
notes: Purified from E. coli on anti-APP columns; It is NGS hit no; 24, at 0.89%; also called Hit No. 24; not shown: APP tag of the vector
B4: Sso7d construct 4.1A02 (EGFR, Purif. No. 1) (designed binder)
chain: B1 chain with Y28W, R32N, N40Y
notes: Purified from E. coli BL21(DE3) on anti-APP columns; It was found 1x on the plate and was not in the NGS Top30
B5: Sso7d construct 4.4E10 (EGFR, Purif. No. 7) (designed binder)
chain: B1 chain with R32Y, N40D
notes: as for B2
B6: Sso7d construct 4.2A08 (EGFR, Purif. No. 5) (designed binder)
chain: B1 chain with Y28N, R32Y
notes: Purified from E. coli on anti-APP columns; It is NGS hit 1, at 4.56%; also called Hit 1 NGS; not shown: APP tag of the vector

Target: T1, human EGFR on HKB11 cells stably over-expressing hEGFR (human, UniProt P00533 25-1210)
T1 construct: whole, on cells; The control lines were HKB11 w.t. cells, which express EGFR endogenously, and HKB11 EGFR knockout cells; also called HKB11_EGFR; HKB11-EGFR transfected
Assay: FACS of purified APP-tagged Sso7d on EGFR-overexpressing HKB11 cells versus EGFR knock out cells

| Binder | binding result |
| --- | --- |
| B1 | binds |
| B2 | binds |
| B3 | binds |
| B4 | binds |
| B5 | binds |
| B6 | binds |
